Laboratory results published in publication PMC7856282 (Nature biomedical engineering, 2020).

Assay: Dynamic light scattering
Assay type: physicochemical
Details: PBS, 100 mM MgCl2; insulin 25 µM, dAb 1 mg/mL; Figure S2 and S3

In the case of “insulin: human insulin obtained from R&D Systems; analyte of the assay”, the “aggregation under buffer conditions (DLS)” value is reported as “No aggregation”.
